The values that follow come from patent US20230052142A1 (NORDIC BIOSCIENCE A S, published 2023).

The IC50 is the concentration at which inhibition is half-maximal. Higher therefore signals weaker potency.

For this assay, the target named is T1, monoclonal antibody clone NBH134 #102-3GF.
T1 construct: also called TUM antibody; HRP labeled monoclonal antibody
Put plainly: TUM competitive ELISA: the standard peptide in solution competes with plate-bound …-K-Biotin for the HRP-labelled antibody. The method, then: Plates were washed five times in washing buffer (20 mM TRIS, 50 mM NaCl, pH 7.2). Subsequently, 20 μL of standard peptide or sample were added to appropriate wells, followed by 100 μL of 7 ng/mL horseradish peroxidase (HRP) labeled monoclonal antibody solution. The plates were incubated for 1 hour at 20° C. with shaking, and subsequently washed in washing buffer. Finally, 100 μL 3,3′,5,5-tetramethylbenzinidine (TMB) (Kem-En-Tec cat. 4380H) was added, and incubated for 15 min at 20° C. To stop the enzyme reaction of TMB, 100 μL of stopping solution (1% H₂SO₄) was added. The plate was analyzed by an ELISA reader at 450 nm with 650 nm as reference (Molecular Devices, VersaMax, CA, USA). A standard curve was performed by serial dilution of the standard peptide and plotted using a 4-parametric mathematical fit model. Standard concentrations were 0, 0.3125, 0.625, 1.25, 2.5, 5, 10, and 20 ng/mL. Each plate included five kit controls to monitor inter-assay variation. All samples were measured within the range of the assay, and all samples below lower limit of measurement range (LLMR) were reported as the value of LLMR.
For orientation: An ELISA detects its analyte on a solid surface through an enzyme-linked reagent.

B1: standard peptide PGLKGKRGDS (peptide)
peptide: PGLKGKRGDS
notes: Synthetic peptide bought from Genscript; also called calibrator peptide; calibration peptide
B1 displayed an IC50 of 1.6 ng/mL.
